Measured values published in publication PMC10039853, “Increasing the melting temperature of VHH with the in silico free energy score” (Scientific Reports, 2023).
Residue numbers refer to the chain shown, from its start. One block for each binder: values may come before it.

Tests used:
[1] = target: T1, hen egg lysozyme (Gallus gallus (hen egg white), UniProt P00698); test: ELISA; lysozyme (1 ug/mL) coated on 384-well MaxiSorp plate overnight at 4 °C; serial concentrations of VHH in 5% BlockingOne in TBST, 1 h at room temperature; detected with Penta-His HRP conjugate; conditions: both partners purified
T1 construct: hen egg lysozyme (HEL), antigen of VHH D3-L11; also in the complex structure PDB 6JB8; also called HEL; antigen lysozyme; source: bought: Sigma-Aldrich, Cat No. L6876 (named for the ELISA)

[2] = target: T1, hen egg lysozyme; test: SPR; Biacore T200; lysozyme immobilised on Sensor Chip CM5 by amine coupling to 200 RU; VHH injected 300 s, dissociation 600 s; running buffer PBST (PBS, 0.005% Tween 20); duplicate; 1:1 binding model; conditions: both partners purified

T1 sequence (P00698 19-147): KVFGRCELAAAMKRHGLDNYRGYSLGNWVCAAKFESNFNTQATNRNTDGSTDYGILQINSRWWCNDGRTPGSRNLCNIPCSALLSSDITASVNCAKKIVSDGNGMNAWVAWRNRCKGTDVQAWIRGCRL

fold decrease in affinity (EC50) against wild type [1]: < 10 fold | fold decrease in affinity (KD) against wild type [2]: < 10 fold
B1: D3-L11 A79L (VHH)
VHH: DVQLVESGGGSVQAGGSLRLSCAASGSTDSIEYMTWFRQAPGKAREGVAALYTHTGNTYYTDSVKGRFTISQDKAKNMLYLRMDSVKSEDTAIYTCGATRKYVPVRFALDQSSYDYWGQGTQVTVSS
notes: as the VHH chain of m2 (D3-L11, PDB 6JB8) with the stated substitution; Second-round mutant; same construct as m2; also called L mutant; source: ExpiCHO, transient transfection, purified from supernatant (His Mag Sepharose excel); not shown: His6 (after a SAG tripeptide linker), C-terminal, kept

fold decrease in affinity (EC50) against wild type [1]: < 10 fold | fold decrease in affinity (KD) against wild type [2]: < 10 fold
B5: D3-L11 A79S (VHH)
VHH: B1 VHH with L79S
notes: as the VHH chain of m2 (D3-L11, PDB 6JB8) with the stated substitution; Second-round mutant; same construct as m2; also called S mutant; source: ExpiCHO, transient transfection, purified from supernatant (His Mag Sepharose excel); not shown: His6 (after a SAG tripeptide linker), C-terminal, kept

The remaining lines, values behind:

B2: D3-L11 A79N (VHH)
VHH: B1 VHH with L79N
notes: as the VHH chain of m2 (D3-L11, PDB 6JB8) with the stated substitution; Second-round mutant; same construct as m2; also called N mutant; source: ExpiCHO, transient transfection, purified from supernatant (His Mag Sepharose excel); not shown: His6 (after a SAG tripeptide linker), C-terminal, kept
fold decrease in affinity (EC50) against wild type [1]: < 10 fold | fold decrease in affinity (KD) against wild type [2]: < 10 fold

B3: D3-L11 A79M (VHH)
VHH: B1 VHH with L79M
notes: as the VHH chain of m2 (D3-L11, PDB 6JB8) with the stated substitution; Second-round mutant; same construct as m2; also called M mutant; source: ExpiCHO, transient transfection, purified from supernatant (His Mag Sepharose excel); not shown: His6 (after a SAG tripeptide linker), C-terminal, kept
fold decrease in affinity (EC50) against wild type [1]: < 10 fold | fold decrease in affinity (KD) against wild type [2]: < 10 fold

B4: D3-L11 A79V (VHH)
VHH: B1 VHH with L79V
notes: as the VHH chain of m2 (D3-L11, PDB 6JB8) with the stated substitution; Second-round mutant; same construct as m2; also called V mutant; source: ExpiCHO, transient transfection, purified from supernatant (His Mag Sepharose excel); not shown: His6 (after a SAG tripeptide linker), C-terminal, kept
fold decrease in affinity (EC50) against wild type [1]: < 10 fold | fold decrease in affinity (KD) against wild type [2]: < 2 fold
